One may read the EC50 (read off the curve) as the midpoint of the concentration-response curve. A lower EC50 (read off the curve) goes with higher potency in that assay.

B1: hz5A8v2 (Fc fusion)
VHH: EVQLVESGGGEVQPGGSLRLSCAASGSIFSINAMGWYRQAPGKQRELVAVVSSDGRTTVAPSVKGRFTISRDNAKNTVYLQMSSLRAEDTAVYYCGVREWYSDSDWRDYEGQGTLVTVKP
notes: tested as VHH-human Fc; Fc not specified
B2: hz5A8v6 (Fc fusion)
VHH: B1 VHH with D54E
notes: as for B1
B3: hz5A8v7 (Fc fusion)
VHH: B1 VHH with G55A
notes: as for B1
B4: hz5A8v8 (Fc fusion)
VHH: B1 VHH with S104A
notes: as for B1
B5: hz5A8v9 (Fc fusion)
VHH: B1 VHH with D103E
notes: as for B1
B6: hz5A8v1 (Fc fusion)
VHH: B1 VHH with P61E
notes: as for B1
B7: hz5A8v3 (Fc fusion)
VHH: B1 VHH with A40V, P41L
notes: as for B1
B8: hz5A8v4 (Fc fusion)
VHH: B1 VHH with Y79S
notes: as for B1
B9: hz10E5v1 (Fc fusion)
VHH: EVQLVESGGGEVQPGGSLRLSCAASGFTLDDYTIGWFRQAPGKEREGVSCISSSGGSTYYAESVKGRFTISRDNAKNTLYLQMSSLRAEDTAVYYCATYCPVVVGPELGYDYWGQGTLVTVKP
notes: as for B1
B10: hz10E5v4 (Fc fusion)
VHH: B9 VHH with R87K, A88S, V93I
notes: as for B1
B11: L10E5 (Fc fusion)
VHH: EVQLVQSGGGLVQPGGSLRLSCAASGFTLDDYTIGWFRQFPGKEREGVSCISSSGGSTYYADSVKGRFTISRDNAKNTVWLQMNDLKSEDTAIYYCATYCPVVVGPELGYDYWGQGTQVTVKP
notes: as for B1
B12: hz10E5v2 (Fc fusion)
VHH: B9 VHH with L79V, Y80W
notes: as for B1
B13: hz10E5v5 (Fc fusion)
VHH: B9 VHH with A40F
notes: as for B1
B14: hz10E5v3 (Fc fusion)
VHH: B9 VHH with S84N, S85D
notes: as for B1
B15: hz6C5v1 (Fc fusion)
VHH: EVQLVESGGGEVQPGGSLRLSCAASEITFSDKTVGWYRQAPGKQRVLVAVISNVDSTNYAESVKGRFTISRDNAKNTLYLQMSSLRAEDTAVYYCHARDFENEYWGQGTLVTVKP
notes: as for B1
B16: hz6F1v5 (Fc fusion)
VHH: B15 VHH with T28I, L78V, H96Y, N102S, Q107R, L110Q
notes: as for B1
B17: hz8E7v2 (Fc fusion)
VHH: B15 VHH with T28I, F29T, T33S, Y37W, V46N, V50G, D55G, E61Q, H96Y
notes: as for B1
B18: hz6F1v2 (Fc fusion)
VHH: B15 VHH with T28I, L78V, H96Y, N102S
notes: as for B1
B19: hz6F1v6 (Fc fusion)
VHH: B15 VHH with T28I, D55E, L78V, H96Y, N102S
notes: as for B1
B20: hz6C5v3 (Fc fusion)
VHH: B15 VHH with E61H, L78V
notes: as for B1
B21: hz8E7v1 (Fc fusion)
VHH: B15 VHH with T28I, F29T, T33S, Y37W, V46N, V50G, D55G, H96Y
notes: as for B1
B22: hz6C5v4 (Fc fusion)
VHH: B15 VHH with A23G, L78V
notes: as for B1
B23: hz8E7v4 (Fc fusion)
VHH: B15 VHH with T28I, F29T, T33S, Y37W, V46N, V50G, D55G, E61Q, Y79F, H96Y
notes: as for B1
B24: hz6F1v1 (Fc fusion)
VHH: B15 VHH with T28I, H96Y, N102S
notes: as for B1
B25: hz6C5v5 (Fc fusion)
VHH: B15 VHH with D55E, L78V
notes: as for B1
B26: hz6F1v7 (Fc fusion)
VHH: B15 VHH with T28I, S56A, L78V, H96Y, N102S
notes: as for B1
B27: hz8E7v3 (Fc fusion)
VHH: EVQLVESGGGEVQPGGSLRLSCGPSEIITSDKSVGWWRQAPGKQRNLVAGISNVGSTNYAQSVKGRFTISRDNAKNTLYLQMSSLRAEDTAVYYCYARDFENEYWGQGTLVTVKP
notes: as for B1
B28: hz6C5v2 (Fc fusion)
VHH: B15 VHH with L78V
notes: as for B1
B29: hz6F1v4 (Fc fusion)
VHH: B15 VHH with A23G, T28I, L78V, H96Y, N102S
notes: as for B1
B30: hz6F1v3 (Fc fusion)
VHH: B15 VHH with T28I, E61Q, L78V, H96Y, N102S
notes: as for B1
B31: 3C5 (Fc fusion)
VHH: QVQLVQSGGGLVQAGGSLRLSCAASGSIFSINAMGWYRQPPGKQRELVAGFTGDGSTKYADSVKGRFTISRDNAKNTVYLQMNSLKPEDTAVYYCAADVQLLNSDYEFYWGQGTQVTVKP
notes: as for B1
B32: L6C5 (Fc fusion)
VHH: QVQLQESGGGLVQTGGSLTLSCGASEITFSDKTVGWYRQAPGKQRVLVAVISNVDSTNYAHSVKGRFTISRDNAKNTVYLQMNSLKPEDTAVYYCHARDFENEYWGRGTQVTVKP
notes: as for B1
B33: hz10D9v8 (Fc fusion)
VHH: EVQLVESGGGEVQPGGSLRLSCAASGFTFSINAMGWYRQAPGKQRELVAGFTGDTNTIYAESVKGRFTISRDNAKNTVYLQMSSLRAEDTAVYYCAADVQLFSRDYEFYWGQGTLVTVKP
notes: as for B1
B34: hz10D9v12 (Fc fusion)
VHH: B33 VHH with F27S, T28I, N32Y
notes: as for B1
B35: hz10D9v9 (Fc fusion)
VHH: B33 VHH with I31S, N32Y
notes: as for B1
B36: hz10D9v10 (Fc fusion)
VHH: B33 VHH with F27S, T28I, I31S
notes: as for B1
B37: hz10D9v13 (Fc fusion)
VHH: B33 VHH with T28I
notes: as for B1
B38: hz10D9v11 (Fc fusion)
VHH: B33 VHH with T28I, I31S, N32Y
notes: as for B1
B39: hz8E7v13 (Fc fusion)
VHH: B27 VHH with V34M, L78V
notes: as for B1
B40: hz6C5v6 (Fc fusion)
VHH: B15 VHH with S56A, L78V
notes: as for B1
B41: hz8E7v12 (Fc fusion)
VHH: B27 VHH with Q44G, N46E
notes: as for B1

Where a chain is given by its changes, count along the chain named.

In one assay the target is T1, human DLL3 (Delta-like ligand 3) (human, UniProt Q9NYJ7 27-618).
T1 construct: endogenous on SHP-77 cells; also called cell-surface DLL3
T1 sequence: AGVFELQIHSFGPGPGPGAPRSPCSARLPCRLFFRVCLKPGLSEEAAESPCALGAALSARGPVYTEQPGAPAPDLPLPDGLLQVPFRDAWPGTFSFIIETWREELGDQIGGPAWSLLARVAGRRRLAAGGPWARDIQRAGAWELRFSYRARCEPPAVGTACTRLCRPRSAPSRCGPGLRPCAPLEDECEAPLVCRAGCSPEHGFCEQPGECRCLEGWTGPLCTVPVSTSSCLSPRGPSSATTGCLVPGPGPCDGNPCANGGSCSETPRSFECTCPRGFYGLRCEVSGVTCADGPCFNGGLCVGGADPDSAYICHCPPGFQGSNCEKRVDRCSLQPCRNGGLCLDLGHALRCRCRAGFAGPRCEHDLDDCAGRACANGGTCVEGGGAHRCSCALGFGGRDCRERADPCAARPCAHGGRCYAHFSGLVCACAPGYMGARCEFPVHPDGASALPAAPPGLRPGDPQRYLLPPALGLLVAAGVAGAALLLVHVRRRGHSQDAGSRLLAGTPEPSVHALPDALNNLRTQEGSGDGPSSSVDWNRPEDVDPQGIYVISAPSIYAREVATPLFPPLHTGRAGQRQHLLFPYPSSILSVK
As to the kind of experiment: flow cytometry, sdAb-Fc titrated on SHP-77 cells (DLL3 positive), APC anti-human Fc secondary. The protocol:
FIGS. 2A-L set forth a series of graphs depicting the ability of sdAb and humanized variants thereof targeting DLL3 to bind cell surface DLL3.
Specificity and relative affinity were assessed for purified sdAb-Fcs on DLL3-expressing cells. […] A titration series of the fusion protein was incubated with the DLL3-expressing cell lines (approximately 2.5×10⁴ to 5×10⁴ cells/well) for 30 minutes at 4 degrees Celsius in FACS Buffer (PBS 1% BSA, 0.1% NaN₃ pH 7.4) in 96-well plates. Following three wash steps in FACS buffer, an APC-conjugated anti-human Fcγ specific secondary antibody (Jackson ImmunoResearch) was added and incubated for 30 minutes at 4 degrees Celsius. Following three additional wash steps in FACS buffer bound antibody was detected via flow cytometry (IQue Intellicyte).
Background: Flow cytometry measures light scatter and fluorescence of single cells or particles in a stream.
Consider B1, for which the binding result was “binds”.

For the molecule B2, the binding result is reported as “binds”.

B3: the binding result was “binds”.

As for B4, the binding result was “binds”.

Consider B5, for which the binding result was “binds”.

As to B6, the “EC50 (read off the curve)” value is ~2 nM.

For B7, the binding result is reported as “binds”.

On to B8, for which the binding result is recorded as “binds”.

For B9, the “EC50 (read off the curve)” value was ~5 nM.

On to B10, for which the “EC50 (read off the curve)” value was ~10 nM.

Take B11: the “EC50 (read off the curve)” value was ~3 nM.

As for B12, the “EC50 (read off the curve)” value is ~7 nM.

Consider B13, for which the “EC50 (read off the curve)” value was ~7 nM.

With B14, the “EC50 (read off the curve)” value is ~7 nM.

With B15, the “EC50 (read off the curve)” value is ~2 nM.

As to B16, the binding result is listed as “binds”.

In the case of B17, the binding result is listed as “binds”.

With B18, the binding result is “binds”.

For B19, the binding result was “binds”.

In the case of B20, the binding result is recorded as “binds”.

For B21, the binding result is “binds”.

For the molecule B22, the binding result is “binds”.

B23: the binding result was “binds”.

As for B24, the “EC50 (read off the curve)” value was ~0.5 nM.

B25: the binding result is listed as “binds”.

Consider B26, for which the binding result was “binds”.

With B27, the binding result is listed as “binds”.

Regarding B28, the binding result is recorded as “binds”.

B29: the binding result is listed as “binds”.

Consider B30, for which the binding result is listed as “binds”.

Take B31: the binding result is “binds”.

With B32, the binding result was “binds”.

The next assay has as its target T1, human DLL3 (Delta-like ligand 3). As to the kind of experiment: flow cytometry, SHP-77 cells.
On to B33, for which the binding result is given as “binds”.

B34: the binding result was “binds”.

On to B35, for which the binding result was “binds”.

Take B36: the binding result is recorded as “binds”.

Take B37: the binding result is “binds”.

Turning to B38, the binding result was “binds”.

For the molecule B39, the binding result is given as “binds”.

For the molecule B40, the binding result is reported as “binds”.

B41: the binding result is reported as “binds”.
